According to paper PMC11417369, “DNA sequence and chromatin differentiate sequence-specific transcription factor binding in the human malaria parasite Plasmodium falciparum”:

T1: AP2-G D1 (Plasmodium falciparum, UniProt Q8I5I9 2123-2245)
T1 sequence: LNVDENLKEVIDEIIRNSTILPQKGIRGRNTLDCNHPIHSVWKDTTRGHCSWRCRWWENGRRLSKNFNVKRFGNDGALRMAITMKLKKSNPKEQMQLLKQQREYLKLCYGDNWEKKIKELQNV

B1: XGTACX_negctrl_site367 (dsDNA)
DNA 1: ATAAAATGATGTATCTGTGTATGTTTATTTTGTTTT
DNA 2: AAAACAAAATAAACATACACAGATACATCATTTTAT
B2: XGTACX_negctrl_site308 (dsDNA)
DNA 1: TACATAATTTAAAATTTTATAAGTTGTAATTCGTTT
DNA 2: AAACGAATTACAACTTATAAAATTTTAAATTATGTA
B3: XGTACX_negctrl_site76 (dsDNA)
DNA 1: TTATTATTTATTTTTTATTATTATTATTTTTTTTTA
DNA 2: TAAAAAAAAATAATAATAATAAAAAATAAATAATAA
B4: XGTACX_negctrl_site479 (dsDNA)
DNA 1: AATCAATTAATATTAGCATAAAATTTTATTATTTTG
DNA 2: CAAAATAATAAAATTTTATGCTAATATTAATTGATT
B5: XGTACX_negctrl_site355 (dsDNA)
DNA 1: AAAGGGGAAAATATTATACATATAATAAATCCGTAT
DNA 2: ATACGGATTTATTATATGTATAATATTTTCCCCTTT
B6: XGTACX_negctrl_site528 (dsDNA)
DNA 1: TTTTATCAAATATTTATTTTATACATAAATATTTAT
DNA 2: ATAAATATTTATGTATAAAATAAATATTTGATAAAA
B7: XGTACX_negctrl_site298 (dsDNA)
DNA 1: AGTTTTTATTAAAACAAAATTTAATTATAACGTTGA
DNA 2: TCAACGTTATAATTAAATTTTGTTTTAATAAAAACT
B8: XGTACX_negctrl_site539 (dsDNA)
DNA 1: TAAGGATAAATAAAATGAAATGAAATAAATAAATGA
DNA 2: TCATTTATTTATTTCATTTCATTTTATTTATCCTTA
B9: XGTACX_negctrl_site240 (dsDNA)
DNA 1: TTTTTTATAAAATTTTTTTTTTAAAATATTAAAACT
DNA 2: AGTTTTAATATTTTAAAAAAAAAATTTTATAAAAAA
B10: XGTACX_negctrl_site513 (dsDNA)
DNA 1: GAAAAAAAAAAAAAAAGAAAATTCATATTTTTAATA
DNA 2: TATTAAAAATATGAATTTTCTTTTTTTTTTTTTTTC
B11: XGTACX_negctrl_site221 (dsDNA)
DNA 1: TATTTTATAAATACAAGTAAAATTAAATATATAATA
DNA 2: TATTATATATTTAATTTTACTTGTATTTATAAAATA
B12: XGTACX_negctrl_site318 (dsDNA)
DNA 1: GAAAAAAGGAAATAAAGAAAAAAAAAAATGAAATAT
DNA 2: ATATTTCATTTTTTTTTTTCTTTATTTCCTTTTTTC
B13: XGTACX_negctrl_site420 (dsDNA)
DNA 1: AAAAAATAGAATATAAAAATAAAGGAATTAAATTAA
DNA 2: TTAATTTAATTCCTTTATTTTTATATTCTATTTTTT
B14: XGTACX_negctrl_site307 (dsDNA)
DNA 1: CTTTATCTTCTCACGAAGATTGAATAAGGTATTCTT
DNA 2: AAGAATACCTTATTCAATCTTCGTGAGAAGATAAAG
B15: XGTACX_negctrl_site67 (dsDNA)
DNA 1: AACAAATAAAGCTATGACATGTTAAAATTGTTTCAC
DNA 2: GTGAAACAATTTTAACATGTCATAGCTTTATTTGTT
B16: XGTACX_negctrl_site60 (dsDNA)
DNA 1: TACAGTTTTTCTTTGAATTTATCAAGTTTTTTTCCC
DNA 2: GGGAAAAAAACTTGATAAATTCAAAGAAAAACTGTA
B17: XGTACX_negctrl_site364 (dsDNA)
DNA 1: ATAAAATATTAGACATTTATTAATATTACACATATC
DNA 2: GATATGTGTAATATTAATAAATGTCTAATATTTTAT
B18: XGTACX_negctrl_site418 (dsDNA)
DNA 1: TTTTTTTTTTTTTTTTCTTTTTTTTTTTTAAATAAG
DNA 2: CTTATTTAAAAAAAAAAAAGAAAAAAAAAAAAAAAA
B19: XGTACX_negctrl_site87 (dsDNA)
DNA 1: GCATATTTTCCCTGTGAATAAAGTTTTTTTTTTTAT
DNA 2: ATAAAAAAAAAAACTTTATTCACAGGGAAAATATGC
B20: XGTACX_negctrl_site278 (dsDNA)
DNA 1: TAATATTTCTTATTTTATATTTGTATATGAATGGAT
DNA 2: ATCCATTCATATACAAATATAAAATAAGAAATATTA
B21: XGTACX_negctrl_site159 (dsDNA)
DNA 1: TACAAAAAGAATGAAAAATATATAATAAAAATAAAA
DNA 2: TTTTATTTTTATTATATATTTTTCATTCTTTTTGTA
B22: XGTACX_negctrl_site1 (dsDNA)
DNA 1: TACAAACAAACACATAGCAATATATGTTATCAAAAA
DNA 2: TTTTTGATAACATATATTGCTATGTGTTTGTTTGTA
B23: XGTACX_negctrl_site72 (dsDNA)
DNA 1: CTTTCAAAATTATTTATAGTATCTCATATTTTAGTA
DNA 2: TACTAAAATATGAGATACTATAAATAATTTTGAAAG
B24: XGTACX_negctrl_site612 (dsDNA)
DNA 1: TAAACATTTTTAATTTTGTAAAATTTTAAATAAAAA
DNA 2: TTTTTATTTAAAATTTTACAAAATTAAAAATGTTTA
B25: XGTACX_negctrl_site357 (dsDNA)
DNA 1: ATAATTATATAAATATATATAATATATATATGAAAA
DNA 2: TTTTCATATATATATTATATATATTTATATAATTAT
B26: XGTACX_negctrl_site482 (dsDNA)
DNA 1: AGAAAAAACAAAAGAGAAATGAAAAAAAAAAAAAAA
DNA 2: TTTTTTTTTTTTTTTCATTTCTCTTTTGTTTTTTCT
B27: XGTACX_negctrl_site118 (dsDNA)
DNA 1: AAGGTATACACTGCTTTATCAAGTTTAACTCTTTTT
DNA 2: AAAAAGAGTTAAACTTGATAAAGCAGTGTATACCTT
B28: XGTACX_negctrl_site143 (dsDNA)
DNA 1: TATTTCGTAATTTAATAATATACAAGAAATATATAT
DNA 2: ATATATATTTCTTGTATATTATTAAATTACGAAATA
B29: XGTACX_negctrl_site400 (dsDNA)
DNA 1: AATAATGAAACAGGAAAAAAATATTGTTAAAATGTA
DNA 2: TACATTTTAACAATATTTTTTTCCTGTTTCATTATT
B30: XGTACX_negctrl_site148 (dsDNA)
DNA 1: TTAAAACATATTTTGAATTAATATATTTTAATATTA
DNA 2: TAATATTAAAATATATTAATTCAAAATATGTTTTAA
B31: XGTACX_negctrl_site47 (dsDNA)
DNA 1: ATATATATATAATTATATAAAATATATCATATGTTA
DNA 2: TAACATATGATATATTTTATATAATTATATATATAT
B32: XGTACX_negctrl_site85 (dsDNA)
DNA 1: TACATATTTTGTATATATTATTTATTTTATTAGTTT
DNA 2: AAACTAATAAAATAAATAATATATACAAAATATGTA

molecular target: T1, AP2-G D1; assay: gcPBM; about 25 ug protein; PBS, 1% milk, 0.2 mg/ml BSA, salmon testes DNA, 0.03% Triton X-100; settings: tags: N-terminal GST (pGEX-4T-1), kept; label: surface-attached array probe

Point of comparison: B23, binding signal 9.65 ln median PBM intensity, better of two orientations. Against it:
- B1 — lower, 9.53 ln median PBM intensity, better of two orientations
- B2 — the same, 9.65 ln median PBM intensity, better of two orientations
- B3 — lower, 9.62 ln median PBM intensity, better of two orientations
- B4 — lower, 9.57 ln median PBM intensity, better of two orientations
- B5 — higher, 9.67 ln median PBM intensity, better of two orientations
- B6 — lower, 9.58 ln median PBM intensity, better of two orientations
- B7 — lower, 9.58 ln median PBM intensity, better of two orientations
- B8 — lower, 9.56 ln median PBM intensity, better of two orientations
- B9 — higher, 9.66 ln median PBM intensity, better of two orientations
- B10 — higher, 9.66 ln median PBM intensity, better of two orientations
- B11 — lower, 9.64 ln median PBM intensity, better of two orientations
- B12 — lower, 9.53 ln median PBM intensity, better of two orientations
- B13 — lower, 9.64 ln median PBM intensity, better of two orientations
- B14 — lower, 9.6 ln median PBM intensity, better of two orientations
- B15 — lower, 9.59 ln median PBM intensity, better of two orientations
- B16 — the same, 9.65 ln median PBM intensity, better of two orientations
- B17 — lower, 9.58 ln median PBM intensity, better of two orientations
- B18 — lower, 9.64 ln median PBM intensity, better of two orientations
- B19 — higher, 9.67 ln median PBM intensity, better of two orientations
- B20 — the same, 9.65 ln median PBM intensity, better of two orientations
- B21 — lower, 9.63 ln median PBM intensity, better of two orientations
- B22 — lower, 9.63 ln median PBM intensity, better of two orientations
- B24 — lower, 9.56 ln median PBM intensity, better of two orientations
- B25 — lower, 9.61 ln median PBM intensity, better of two orientations
- B26 — lower, 9.54 ln median PBM intensity, better of two orientations
- B27 — lower, 9.62 ln median PBM intensity, better of two orientations
- B28 — lower, 9.58 ln median PBM intensity, better of two orientations
- B29 — lower, 9.6 ln median PBM intensity, better of two orientations
- B30 — lower, 9.55 ln median PBM intensity, better of two orientations
- B31 — lower, 9.64 ln median PBM intensity, better of two orientations
- B32 — lower, 9.55 ln median PBM intensity, better of two orientations
